Assay: yeast display, Sf9 membrane polyspecificity reagent, FACS + sequencing; frameworks hold sequencing errors
Procedure, shortened: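 A synthetic nanobody library was expressed on Saccharomyces cerevisiae BJ5465 by galactose induction for 36–48 hours. The library was stained for 1 hour at 4 °C with 10% biotinylated, detergent-solubilized Sf9 membrane reagent and enriched with streptavidin microbeads before FACS. Low and high (top ~1%) gates were set on anti-HA fluorescence for expression and streptavidin fluorescence for reagent binding, and each polyreactivity label reflects the gate of origin.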

| Sequence | polyreactivity (PSR sort gate) |
| --- | --- |
| QDQLVESGGGLVQAGGSLRLSCAASGRIFPLYVMGWYRQAPGKERELVAAISRSGSRTYYADSVKGRFTISRDNAKNTVYLQMNSLKPEDTAVYYCAAVTDGTTRYDGDYWGQGTQVTVSS | high polyreactivity |
| QVQLVESGGGLVQAGGSLRLSCAASGFTFLANGMGWYRQAPGKERELVAGITKDGGSTYADSVKGRFTISRDNAKNTVYLQMNSLKPEDTAVYYCAASIFSFSGGLNNGGTRGYWGQGTQVTVSS | low polyreactivity |
| QVQLVESGGGLVQAGGSLRLSCAASGSIFLGNAMGWSRQAPGKERELVAAISSITGRTYYADSVKGRFTISRDNAKNTVYLQMNSLKPEDTAVYYCNKVKRSFIVNTDDYWGQGTQVTVSS | high polyreactivity |
| QVQLVESGGGLVQAGGSLRLSCAASGSNFGPNAMGWYRQAPGKERELVAAIRSNGGRTYYADSVKGRFTISRDNAKNTVYLQMNRLKPEDTAVYYCAAPHYPYDTPYGYWGHGTQVTVSS | low polyreactivity |
| QVQLVESGGGLVQAGGSLRLSCAASGRISGINVMGWYRQAPGKERELVAAISRSGARTYYADSVKGRFTISRDNAKNTVYLQMNSLKPEDTAVYYCNAANLKYPKYVQGDYWGQGTQVTVSS | high polyreactivity |
| QVQLVESGGGLVQAGGSLRLSCAASGSTFYANDMGWYRQAPGKERELVASISLGDGSTYYADSVKGRFTISRDNAKNTVYLQMNSLKPEDTAVYYCAAGFYVWYWGFNYWGQGSQVTVSS | low polyreactivity |
| QVQQQESGGGLVQAGGSLRLSCAASGNIFRFTRMGWYRQGPGQVREFVAGIGDGSTTYYADSVKGRFTISRDNAKNTVHLQMNSQKPEDTAVYSCAVGDSGFVHHPYWGQGTQVTVSS | high polyreactivity |
| QVQLVESGGGLVQAGGSLRLSCAASGRTFDSYAMGWYRQAPGKERELVAAIYADSVKGRFTISRDNAKNTVYLQMNSLKPEDTAVYYCAARDPSRHARRAYDYWGQGTQVTVSS | low polyreactivity |
| QVQLVESGGGLVQAGGSLRLSCAASGITFYYYARGWYRQAPGKERELVAAINSGGITNYADSVKGRFTISRDNAKNTVFLQMNSLKPEDTAVYYCAASSGFRYRYGYWGQGTQVTVSS | high polyreactivity |
| QVQLVESGGGLVQAGGSLRLSCPASGFTFGRYGMGWYRQAPGKERELVAGITWSGGSTSYADSVKGRFTISRDNAKNTVYLQMYSLIPEDTAVYYCATRARYTRVHGRRYAYDYWGQGTQVTVSS | high polyreactivity |
| QVQLLESGGGLVQAGGSLRLSCPPSGFIFPRNVMGWYRQAPGKERELVAAISRSGGSTYYADSVKGRYTISRDNAKNTVYLQLNSQKPEDTAVYYCAAEIPVYQGTGDYDYWGQGTQVTVSS | low polyreactivity |
| QVQLVESGGGLVQAGGSLRLSCAASGSTFEIYVMGWYRQAPGKERELVAAISRVGNTSYADSVKGRFTISRDNAKNTVYLQMNSLKPEDTAVYYCAADAPSWYDRQYDYWGQGTQVTVSS | low polyreactivity |
| QVQLVESGGGLVQAGGSLRLSCAASGRTFFPYAMGWYRQAPGKERELVAAISFRGGRTYYADSVKGRFTISRDNAKNTVYLQMNSLKPEDTAVYYCNKLGTRVYEMDYWGQGTQVTVSS | high polyreactivity |
| QVQLVESGGGLVQAGRSLRLSCAASGYTFSPNDMGWYRQAPGKERELVATITYGGGTTYYADSVKGRFTISRDNAKNTVYLQMNSLKPEDTAVYYCAKDVPLYRAHDGYDYWGQGTQVTVSS | low polyreactivity |
| QVQLVESGGGLVQAGGSLRLSCAASGFTFRRNAMGWYRQAPGTERELVAAINVRDGSTYYADSVKGRFTISRDNAKNTVYVQMNSLKPEDTAVYYCAAEFFQGYYWYYYWGQGTQVTVSS | high polyreactivity |
| QVQLVESGGCLVQAGGSLRLSCASSGSTIGGYAMGWYRQAPGKERELVAAITWNGGRTYYADSVKGRFTISRDNAKNTVYVQMTSLKQEDTAVYYCATLNLSRSKRVSGGGYWGQGTQVTVSS | high polyreactivity |
| QVQLVESGGGLVQAGGSLRLSCASSGYTFTVYAKGWYRQAPGKERELVAAITWNGASTYYADSVKGRFTISRDNAKNTVYLQMNSLKPEDTAVYYCADPYYFYRDRYRLDYWGQGTQVTVSS | low polyreactivity |
| QVQLVESGGGLVQAGGSLRLSCADSGSISYSYAMGWYRQAPGKDRELVAAISWRGVSTYYADSVKGRFTISRDNAKNTVYLQMNSLKPEDTAVYYCNAVHHYPEHIGGGYWGQGTLVTVSS | low polyreactivity |
| QVQLVESGGGLVQAGGSLRLSCAASGITFSRYAMGWYRQAPGKERELVAAITVSGGTTYYADSVKGRFTISRDNAKNTVYLQMNSLKPEDTAVYYCAAVRRKTAGGLEDYWGQGTQVTVSS | high polyreactivity |
| QVQLVESGGGLVQAGGSLRLSCAASGFIIDPNAMGWYSQAPGKERDLVAAISSSGGRTYYADSVKGRFTISRDNAKNTVYFQLNSLKPEDTAVYYCATDTSVQGQEYDYWGKGTQVTVSS | low polyreactivity |
| QVQLVESGGGLVQAGGSLRLSCAASGITFRKYVMGWYRQAPGKERELVATITRNGGTTNYADSVKGRFTISRDNAKNTVYLQMNSLKPEDTAVYYCAAVRRDYDDVYTEYWGQGTQVTVSS | high polyreactivity |
| QDQLVDSGGGLVQAGGSLRLRCGASGRILAWYAMGWYRQAPGKEREFVAGNTGSVGSTYYADSVKGRFTNSRDNEKNTVDLQMNSLKPEDTAVYYCYNEWDSTSGQKHYYWGQGTQVTVSS | low polyreactivity |

| Sequence | polyreactivity (PSR sort gate) |
| --- | --- |
| QVQLVESGGGLVQAGGSLRLSCAASGSTFQPYTMGWYRQAPGKERELVAAISSSGRTNYADSVKGRFTISRDNAKNTVYLQMNSLKPEDTAVYYCNRDYPYIWHKGARYWHENDYWGQGTQVTVSS | low polyreactivity |
| QVQLVESGGGLVQAGGSLRLSCAASGSIFAYYTMGWYRQAHGKERELVAAISRSGGSTNYADSVKGRFTISRDNAKNTVYLQMNSLKPEDTAVYYCAVRRYSRRLFGYYYWGQGTQVTVSS | high polyreactivity |
| QVQLVESGGGLVQAGGSLRLSCAASGRTFFGYAMGWYRQAPGKERELVAAITTSGGSTYYADSVKGRFTISRDNAKNTVYLQMNSLKPEDTAVYYCAARAYYGYYYWGQGTQVTVSS | low polyreactivity |
| QVQLVESGGGLVQAGGSLRLSCAASGSTFKYYALGWYRQAPGKERELVAVITSGGSTYYADSVKGRFTISRDNAKNTVYFQMNSLKPEDTAVYYCAAGVRAYNWGEYDYWGQGTQVTVSS | low polyreactivity |
| QVQLVESGGGLVQAGGILRLSCAASGSIFVNNAMGLYRQAPGKERELVAAITSGTRTNYADSVKGRFTISRDNAKNTVYLQMNSLKPEDTAVYYCAAVKYRYAYVPPRFDYWGQGTQVTVSS | low polyreactivity |
| QVQLVESGGGLVQAGGSLRISCAASGSTFGPYAMGWYRPAPGKERELVAAITKSGGRTYYADSVKGRFTISRDNAKNTVYLQMNSLKPEDTAVYYCAAYGSVGLEYWGQGTQVTVSS | high polyreactivity |
| QVQLVESGGGLVQAGGSLRLSCAASGSTFRYYAMGGSRQEPGKESELVAVISTSGNTYYADSVKGRFTISRDNAKNSVYLQMNSLKPEDTAVYYCAARGVGGQISQEYDYWGQGTQVTVSS | low polyreactivity |
| QVQLVESGGGLVQAGGSLRLSCAASGLTFSRNTMGWYRQAPGKERELVDTIDRGGRTNYADSVKGRFTISRDNAKNTVYLQMNSLKPEDTAVYYCATDASFYDPDLYPYGYDYWGQGTQVTVSS | high polyreactivity |
| QDQLVESGGGLVQAGGSLRLICAASGRTFTFYAMGWSRQAPGKERELVAAIRRGGSTNYADSVKGRFTISRDNAKNTVYLQMNSLKPEDTAVYYCNKRVWYPYWTLDYWGQGTQVTVSS | low polyreactivity |
| QVLLVESAAGLVQAGGSLRLSCAASGSTFQGNAMGGYRKAPGKERELVAAISRSGGSTYADSVKGRFTISRDNAKNTVYLQLNSLKPEDTAVYYCAAYSGVGYLWFDYWGQGTQVTVSS | low polyreactivity |
| QVQLVESGGGLVQAGGSLRLSCAASGNIFVAYAMGWYRQAPGKEREMVAAISSRGGRTYYADSVKGRFTISRDNAKNTVYLQMNSLKPEDTAVYYCATDVGYYRKYEYYYWGQGTQVTVSS | high polyreactivity |
| QVQLVESGGGLVQAGGSLRLSCAASGSTFTLNAMGWYRQAPGKERELVADISWSSGRTYYADSVKGRFTISRDNAKNTVYLQMNSLKPEDTAVYYCNKDDNSYGLNYWGQGTQVTVSS | low polyreactivity |
| QVQLVESGGGLVQAGGSLRLSCAASGRTFQWYAMGWYRQAPGKERELVAGISFSGGSTYYADSVKGRFTISRDNAKNTVYLQMNSLKPEDTAVYYCAARRFSPGSSGHGYWGQGTQLTVSS | high polyreactivity |
| QVQLVESVGGLVQAGGSLRLSCAASGRIFQYYAMGWYRQAPGKERELVAAITRSGGRTYYADSVKGRFTISRDNAKNTVYLQMNSLKPEDTAVYYCAARDWYYTMYYWGQGTQVTVSS | high polyreactivity |
| QVQLVESGGGLVQAGGSLRLSCAASGFIFSRNAMGWYRQAPGKERELVAAISSGGGTDYADSVKGRFTISRDNAKNTVYLQMNSLQPEDTAVYYCAASYFPGWKHSLDDYWGQGTQVTVSS | low polyreactivity |
| QVQHVESGAGLVQAGGSLRLSCAASGNTFTWYTRGWSRQAPGKERELVAVITSDGATYYADSVKGRFTISRDNAKNTVYLQMNSLKPEDTAVYYCNALSAEWYPEEDYWGQGTQVTVSS | low polyreactivity |
| QVQLVESGGGLVQAGGSLRLSCAASGGIFRYYAMGWYRQAPGKERELVAAISKSGGRTYYADSVKGRFTISRDNAKNTVYLQMNSLKPEDTAVYYCNAEYTWHSGYDYWGQGTQVTVSS | low polyreactivity |
| QVQLVESGGGLVQAGGSLRLSCAASGSIFTYYAMGWYRQAPGKERELVAAITRRGGSTYYADSVKGRFTISRDNAKNTVYLQMNSLKPEDTAVYYCNAFTYWASYWDYDYWGQGTQVTVSS | low polyreactivity |
| QVQLVESGGGLVQAGGSLRLSCAASGFIIIGYVMGWYRQAPGNERELVAAITSSGSGTYYADSVKGRVTISRDNAKNTVYLQMNSLKPEDTAVYYSAAQVRYGTATYHVSSYHYTRYGYWGQATQVTVSS | low polyreactivity |
| QVQLVESGGGLVQAGGSLRLSCAASGSIFGVNAMGWYRQAPGKERELVAAISVSGGRTYYADSVKGRFTISRDNAKNTVYLLMNSLKPEDTAVYYCAATTYIWPYDYWGQGTQVTVSS | low polyreactivity |
| QVQLGESGGGLLQAGGSLRLICAASGSIFSPYDMGWYRHAPGKERVLVAAITGSGASTYYADSVKGRFSISRDNAKNTVSLEMNSLKPEETAVYYCAAVSKYYTTWTSGYWGQGTQVTLSS | low polyreactivity |

From the nanobody polyreactivity screen of Harvey et al. (2022)
